For assay [1], the target named is PIWIL1-R4me1 (Homo sapiens) (UniProt Q96J94). The following applies: cited from earlier work.
For assay [2], the target named is PIWIL1-R4me2a (Homo sapiens) (UniProt Q96J94). As to conditions: cited from earlier work.
Assay [3] deals with PIWIL1-R4me2s (Homo sapiens) (UniProt Q96J94). As to conditions: cited from earlier work.
The target of the next assay is H3R17me2a. Nature of the assay: ITC; 20 mM Tris pH 8.0, 200 mM NaCl; 25°C; one-site binding model. On the technique in general: ITC needs no label: the signal is the heat of the interaction.
Another assay concerns the target H3R2me2a. Nature of the assay: fluorescence polarisation; fluorescein-labeled peptides; 20 mM Tris pH 7.5, 50 mM NaCl, 1 mM DTT, 0.01% Triton X-100; 25°C; one-site binding model; Kd the average of three independent measurements. Background: Polarisation of emitted light reports the rotation of a fluorescent probe.
Another assay deals with H3R2me2s. The description is as above.

Sequence of SND1 650-910 (Q7KZF4 650-910): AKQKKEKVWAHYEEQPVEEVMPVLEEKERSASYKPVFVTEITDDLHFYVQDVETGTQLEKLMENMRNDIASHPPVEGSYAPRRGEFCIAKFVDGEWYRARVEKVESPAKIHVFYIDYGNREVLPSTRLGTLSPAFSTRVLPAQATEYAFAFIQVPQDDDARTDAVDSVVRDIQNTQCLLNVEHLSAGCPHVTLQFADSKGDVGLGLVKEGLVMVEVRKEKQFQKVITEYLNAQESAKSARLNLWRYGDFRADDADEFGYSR

For the substance SND1 650-910 (from UniProt Q7KZF4), the figures for the Kd in assay [1], in assay [2] and in assay [3] were 19 µM, 42 µM and 10 µM, respectively.
For the substance “TDRD3 (aa 520–633) (from UniProt Q9H7E2 520-633) (domain or fragment)”, the equilibrium dissociation constant (Kd) – broadly, a measure of binding affinity in units of concentration – with H3R17me2a was greater than 1000 µM; in the assay with H3R2me2a, greater than 500 µM; in the assay with H3R2me2s it was greater than 500 µM.

The values are drawn from publication PMC3281842, “Crystal Structure of TDRD3 and Methyl-Arginine Binding Characterization of TDRD3, SMN and SPF30” (PLoS ONE, 2012).
